Assay results reported in patent US20090162390A1.

What was measured:
Test in all cases: cell-based or functional assay
[1] = molecular target: HIV-1 env glycoprotein (YU2) (HIV-1 (YU2)) (UniProt P35961)
[2] = molecular target: HIV-2 strain 7312A envelope polypeptide (wild-type) (HIV-2 (isolate 7312A))
[3] = molecular target: HIV-2 7312A envelope with site-directed mutations 660 (K to A), 662 (N to D), 663 (S to K) and 665 (D to A) of SEQ ID NO:2 (HIV-2 (isolate 7312A))
[4] = molecular target: HIV-2 7312A envelope with site-directed substitutions at 675 (L to I) and 676 (A to T) (HXB2 numbering) (HIV-2 (isolate 7312A))
[5] = molecular target: HIV-2 ST envelope polypeptide (wild-type) (HIV-2 (strain ST)) (UniProt P20872)
[6] = molecular target: HIV-2 UC1 envelope polypeptide (wild-type) (HIV-2 (strain UC1)) (UniProt Q76638)

Row | Substance | neutralization IC50 (JC53bl-13 HIV entry assay) [1] | neutralization IC50 (JC53bl-13 HIV entry assay) [2] | neutralization IC50 (JC53bl-13 HIV entry assay) [3] | neutralization IC50 (JC53bl-13 HIV entry assay) [4] | neutralization IC50 (JC53bl-13 HIV entry assay) [5] | neutralization IC50 (JC53bl-13 HIV entry assay) [6]
1 | b12 monoclonal antibody | 3 µg/mL | > 50 µg/mL |  |  |  | 
2 | 2F5 monoclonal antibody | 25 µg/mL | > 50 µg/mL | < 0.1 µg/mL |  |  | 
3 | 4E10 monoclonal antibody | 25 µg/mL | > 50 µg/mL |  | 0.8 µg/mL | 0.1 µg/mL | 1.2 µg/mL
